Reference: patent US20190112365A1 (EISAI R AND D MANAGEMENT, published 2019)

target: T1, Human Tau 2N4R, wild type, recombinant full length (human, UniProt P10636 2-758); assay: SPR BIAcore, mAb captured by anti-human IgG, Tau flowed, 1:1 Langmuir
T1 construct: Full length 2N4R isoform; monomer in SPR and ELISA; heparin-induced aggregates or seeds in the functional assays; also called Tau441; Tau-441
Description: All experiments were performed using a BIAcore™ T-100 instrument (GE Healthcare). 10 μL anti-human IgG (monoclonal mouse anti-human Fc) from human antibody capture kit (GE Healthcare) was diluted to 25 μL/mL in 200 μL final immobilization buffer (10 mM sodium acetate, pH 5.0). The flow rate was set to 5 μL/min, flowpath 1. Fifty μL N-hydroxysuccinamide (NETS) and 50 μL 1-ethyl-3-(3-dimethylaminopropyl) carbidiimide (EDC) were mixed and injected for 420 sec to activate the CM5 chip surface. The diluted antibody was injected for 360 seconds followed by 1 M ethanolamine for 420 seconds. The flowpath was then switched to flowpath 2. A new EDC/NHS mixture was prepared and the procedure was repeated for flow cell 2. The surface was conditioned by 2 injections of 30 sec using flowpath 1, 2 at 30 μL/min of 3M MgCl₂. For the anti-mouse surface, 10 μL anti-mouse IgG (polyclonal rabbit anti-mouse IgG) from mouse antibody capture kit (GE Healthcare) was diluted to 30 μL/mL in 324 μL final immobilization buffer (10 mM sodium acetate, pH 5.0). The flow rate was set to 5 μL/min, flowpath 3. Fifty μL NHS and 50 μL EDC were mixed and injected for 420 sec to activate the chip surface. The diluted antibody was injected for 420 sec. 1 M ethanolamine was injected for 420 sec. Flow path was switched to flowpath 4. A new EDC/NHS mixture was prepared and the procedure was repeated for flow cell 4. The surface was conditioned by 2 injections of 30 sec using flowpath 3, 4 at 30 μL/min of 10 mM glycine, pH 1.7.
Binding of humanized and mouse antibodies were analyzed by surface plasmon resonance (BIAcore™) to determine their relative association rates (kₐ), dissociation rates (kd), and equilibrium binding constants (KD). Anti-mouse or anti-human antibodies were immobilized on a CM5 chip and sample mAbs were captured on the chip. 2N4R Tau was flowed over the chip and binding observed. The binding constants kₐ, kd, and KD were determined using a 1:1 Langmuir fitting model.

T1 sequence (P10636 other isoform, or with tags, fused parts or gaps limits assumed): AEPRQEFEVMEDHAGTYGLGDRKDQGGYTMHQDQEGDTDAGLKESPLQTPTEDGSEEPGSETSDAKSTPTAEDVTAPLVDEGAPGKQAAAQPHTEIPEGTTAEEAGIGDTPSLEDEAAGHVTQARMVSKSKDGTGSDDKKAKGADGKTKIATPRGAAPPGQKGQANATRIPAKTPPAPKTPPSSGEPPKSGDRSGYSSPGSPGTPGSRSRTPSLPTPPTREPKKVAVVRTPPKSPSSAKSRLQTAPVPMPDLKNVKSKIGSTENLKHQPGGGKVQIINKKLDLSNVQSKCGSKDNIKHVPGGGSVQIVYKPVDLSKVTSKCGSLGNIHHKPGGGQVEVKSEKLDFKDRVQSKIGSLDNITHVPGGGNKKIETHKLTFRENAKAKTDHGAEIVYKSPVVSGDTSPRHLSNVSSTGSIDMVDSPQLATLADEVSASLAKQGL

Row | Binder | Kd | koff | kon
1 | 7G6-HCzu1-LCzu1 (antibody, human IgG1, kappa, V domains shown, humanized, human IgG1 kappa) VH: QVQLVQSGAEVKKPGASVKVSCKASGYTFTTYWITWVRQAPGQGLEWMGDIYPGSSICNYNEKFKSRVTMTRDTSTSTVYMELSSLRSEDTAVYYCAREDGYDAWFAYWGQGTLVTVSS VL: DVVMTQSPLSLPVTLGQPASISCRSSQSILHSNGNTYLEWFQQRPGQSPRRLIYKVSNRFSGVPDRFSGSGSGTDFTLKISRVEAEDVGVYYCFQGSHVPFTFGQGTKLEIKR | 0.202 nM | 0.000519 s⁻¹ | 2.57e+06 M⁻¹ s⁻¹
2 | 7G6-HCzu4-LCzu2 (antibody, human IgG1, kappa, V domains shown, humanized, human IgG1 kappa) VH: QVQLVQSGAEVKKPGASVKVSCKASGYTFTTYWITWVRQAPGQGLEWMGDIYPGSSICNYAQKFQGRVTMTVDTSTSTAYMELSSLRSEDTAVYYCAREDGYDAWFAYWGQGTLVTVSS VL: DVVMTQSPLSLPVTLGQPASISCRSSQSILHSNGNTYLEWYQQRPGQSPRLLICKVSNRFSGVPDRFSGSGSGTDFTLKISRVEAEDVGVYYCFQGSHVPFTFGQGTKLEIKR | 0.121 nM | 0.000242 s⁻¹ | 2e+06 M⁻¹ s⁻¹
3 | 7G6-HCzu2-LCzu2 (antibody, human IgG1, kappa, V domains shown, humanized, human IgG1 kappa) VH: QVQLVQSGAEVKKPGASVKVSCKASGYTFTTYWITWVRQAPGQGLEWMGDIYPGSSICNYNEKFKSRVTMTVDTSTSTVYMELSSLRSEDTAVYYCAREDGYDAWFAYWGQGTLVTVSS VL: DVVMTQSPLSLPVTLGQPASISCRSSQSILHSNGNTYLEWYQQRPGQSPRLLICKVSNRFSGVPDRFSGSGSGTDFTLKISRVEAEDVGVYYCFQGSHVPFTFGQGTKLEIKR | 0.101 nM | 0.000214 s⁻¹ | 2.12e+06 M⁻¹ s⁻¹
4 | 7G6-HCzu5-LCzu10 (antibody, human IgG1, kappa, V domains shown, humanized, human IgG1 kappa) VH: QVQLVQSGAEVKKPGASVKVSCKASGYTFTTYWITWVRQAPGQGLEWMGDIYPGSSISNYNEKFKSRVTMTVDTSTSTAYMELSSLRSEDTAVYYCAREDGYDAWFAYWGQGTLVTVSS VL: DVVMTQSPLSLPVTLGQPASISCRSSQSIVHSNGNTYLEWFQQRPGQSPRRLIYKVSNRFSGVPDRFSGSGSGTDFTLKISRVEAEDVGVYYCFQGSHVPFTFGQGTKLEIKR | 0.162 nM | 0.00053 s⁻¹ | 3.27e+06 M⁻¹ s⁻¹
5 | 7G6-HCzu5-LCzu22 (antibody, human IgG1, kappa, V domains shown, humanized, human IgG1 kappa; also called 7G6-LCzu22) VH: QVQLVQSGAEVKKPGASVKVSCKASGYTFTTYWITWVRQAPGQGLEWMGDIYPGSSISNYNEKFKSRVTMTVDTSTSTAYMELSSLRSEDTAVYYCAREDGYDAWFAYWGQGTLVTVSS VL: DVVMTQSPLSLPVTLGQPASISCRSSQSILHSNGNTYLEWYQQRPGQSPRRLISKVSNRFSGVPDRFSGSGSGTDFTLKISRVEAEDVGVYYCFQGSHVPFTFGQGTKLEIKR | 1.48 nM | 0.00277 s⁻¹ | 1.88e+06 M⁻¹ s⁻¹
6 | 7G6-HCzu3-LCzu6 (antibody, human IgG1, kappa, V domains shown, humanized, human IgG1 kappa) VH: QVQLVQSGAEVKKPGASVKVSCKASGYTFTTYWITWVRQAPGQGLEWMGDIYPGSSICNYNEKFKSRVTMTVDTSTSTAYMELSSLRSEDTAVYYCAREDGYDAWFAYWGQGTLVTVSS VL: DVVMTQSPLSLPVTLGQPASISCRSSQSILHSNGNTYLEWYQQRPGQSPRLLISKVSNRFSGVPDRFSGSGSGTDFTLKISRVEAEDVGVYYCFQGSHVPFTFGQGTKLEIKR | 0.12 nM | 0.000227 s⁻¹ | 1.9e+06 M⁻¹ s⁻¹
7 | 7G6-HCzu5-LCzu6 (antibody, human IgG1, kappa, V domains shown, humanized, human IgG1 kappa) VH: QVQLVQSGAEVKKPGASVKVSCKASGYTFTTYWITWVRQAPGQGLEWMGDIYPGSSISNYNEKFKSRVTMTVDTSTSTAYMELSSLRSEDTAVYYCAREDGYDAWFAYWGQGTLVTVSS VL: DVVMTQSPLSLPVTLGQPASISCRSSQSILHSNGNTYLEWYQQRPGQSPRLLISKVSNRFSGVPDRFSGSGSGTDFTLKISRVEAEDVGVYYCFQGSHVPFTFGQGTKLEIKR | 0.0961 nM | 0.000206 s⁻¹ | 2.14e+06 M⁻¹ s⁻¹
8 | 7G6-HCzu4-LCzu1 (antibody, human IgG1, kappa, V domains shown, humanized, human IgG1 kappa) VH: QVQLVQSGAEVKKPGASVKVSCKASGYTFTTYWITWVRQAPGQGLEWMGDIYPGSSICNYAQKFQGRVTMTVDTSTSTAYMELSSLRSEDTAVYYCAREDGYDAWFAYWGQGTLVTVSS VL: DVVMTQSPLSLPVTLGQPASISCRSSQSILHSNGNTYLEWFQQRPGQSPRRLIYKVSNRFSGVPDRFSGSGSGTDFTLKISRVEAEDVGVYYCFQGSHVPFTFGQGTKLEIKR | 0.237 nM | 0.000847 s⁻¹ | 3.57e+06 M⁻¹ s⁻¹
9 | 7G6-HCzu5-LCzu7 (antibody, human IgG1, kappa, V domains shown, humanized, human IgG1 kappa) VH: QVQLVQSGAEVKKPGASVKVSCKASGYTFTTYWITWVRQAPGQGLEWMGDIYPGSSISNYNEKFKSRVTMTVDTSTSTAYMELSSLRSEDTAVYYCAREDGYDAWFAYWGQGTLVTVSS VL: DVVMTQSPLSLPVTLGQPASISCRSSQSILHSNGNTYLEWFQQRPGQSPRRLISKVSNRFSGVPDRFSGSGSGTDFTLKISRVEAEDVGVYYCFQGSHVPFTFGQGTKLEIKR | 0.0968 nM | 0.000304 s⁻¹ | 3.14e+06 M⁻¹ s⁻¹
10 | 7G6-HCzu3-LCzu2 (antibody, human IgG1, kappa, V domains shown, humanized, human IgG1 kappa) VH: QVQLVQSGAEVKKPGASVKVSCKASGYTFTTYWITWVRQAPGQGLEWMGDIYPGSSICNYNEKFKSRVTMTVDTSTSTAYMELSSLRSEDTAVYYCAREDGYDAWFAYWGQGTLVTVSS VL: DVVMTQSPLSLPVTLGQPASISCRSSQSILHSNGNTYLEWYQQRPGQSPRLLICKVSNRFSGVPDRFSGSGSGTDFTLKISRVEAEDVGVYYCFQGSHVPFTFGQGTKLEIKR | 0.121 nM | 0.000242 s⁻¹ | 2e+06 M⁻¹ s⁻¹

Further binders by falling Kd, results first:

Row | Kd | koff | kon | Binder
11 | 0.309 nM | 0.000856 s⁻¹ | 2.77e+06 M⁻¹ s⁻¹ | 7G6-HCzu3-LCzu1 (antibody, human IgG1, kappa, V domains shown, humanized, human IgG1 kappa) VH: QVQLVQSGAEVKKPGASVKVSCKASGYTFTTYWITWVRQAPGQGLEWMGDIYPGSSICNYNEKFKSRVTMTVDTSTSTAYMELSSLRSEDTAVYYCAREDGYDAWFAYWGQGTLVTVSS VL: DVVMTQSPLSLPVTLGQPASISCRSSQSILHSNGNTYLEWFQQRPGQSPRRLIYKVSNRFSGVPDRFSGSGSGTDFTLKISRVEAEDVGVYYCFQGSHVPFTFGQGTKLEIKR
12 | 0.226 nM | 0.00064 s⁻¹ | 2.83e+06 M⁻¹ s⁻¹ | 7G6-HCzu2-LCzu1 (antibody, human IgG1, kappa, V domains shown, humanized, human IgG1 kappa) VH: QVQLVQSGAEVKKPGASVKVSCKASGYTFTTYWITWVRQAPGQGLEWMGDIYPGSSICNYNEKFKSRVTMTVDTSTSTVYMELSSLRSEDTAVYYCAREDGYDAWFAYWGQGTLVTVSS VL: DVVMTQSPLSLPVTLGQPASISCRSSQSILHSNGNTYLEWFQQRPGQSPRRLIYKVSNRFSGVPDRFSGSGSGTDFTLKISRVEAEDVGVYYCFQGSHVPFTFGQGTKLEIKR
13 | 0.127 nM | 0.000237 s⁻¹ | 1.86e+06 M⁻¹ s⁻¹ | 7G6-HCzu5-LCzu2 (antibody, human IgG1, kappa, V domains shown, humanized, human IgG1 kappa) VH: QVQLVQSGAEVKKPGASVKVSCKASGYTFTTYWITWVRQAPGQGLEWMGDIYPGSSISNYNEKFKSRVTMTVDTSTSTAYMELSSLRSEDTAVYYCAREDGYDAWFAYWGQGTLVTVSS VL: DVVMTQSPLSLPVTLGQPASISCRSSQSILHSNGNTYLEWYQQRPGQSPRLLICKVSNRFSGVPDRFSGSGSGTDFTLKISRVEAEDVGVYYCFQGSHVPFTFGQGTKLEIKR
14 | 0.11 nM | 0.000241 s⁻¹ | 2.2e+06 M⁻¹ s⁻¹ | 7G6-HCzu1-LCzu2 (antibody, human IgG1, kappa, V domains shown, humanized, human IgG1 kappa) VH: QVQLVQSGAEVKKPGASVKVSCKASGYTFTTYWITWVRQAPGQGLEWMGDIYPGSSICNYNEKFKSRVTMTRDTSTSTVYMELSSLRSEDTAVYYCAREDGYDAWFAYWGQGTLVTVSS VL: DVVMTQSPLSLPVTLGQPASISCRSSQSILHSNGNTYLEWYQQRPGQSPRLLICKVSNRFSGVPDRFSGSGSGTDFTLKISRVEAEDVGVYYCFQGSHVPFTFGQGTKLEIKR
15 | 0.0961 nM | 0.000213 s⁻¹ | 2.21e+06 M⁻¹ s⁻¹ | 7G6-HCzu6-LCzu6 (antibody, human IgG1, kappa, V domains shown, humanized, human IgG1 kappa) VH: QVQLVQSGAEVKKPGASVKVSCKASGYTFTTYWITWVRQAPGQGLEWMGDIYPGSSISNYNEKFKSRVTMTVDTSTSTVYMELSSLRSEDTAVYYCAREDGYDAWFAYWGQGTLVTVSS VL: DVVMTQSPLSLPVTLGQPASISCRSSQSILHSNGNTYLEWYQQRPGQSPRLLISKVSNRFSGVPDRFSGSGSGTDFTLKISRVEAEDVGVYYCFQGSHVPFTFGQGTKLEIKR
16 | 0.095 nM | 0.000278 s⁻¹ | 2.93e+06 M⁻¹ s⁻¹ | 7G6-HCzu5-LCzu21 (antibody, human IgG1, kappa, V domains shown, humanized, human IgG1 kappa) VH: QVQLVQSGAEVKKPGASVKVSCKASGYTFTTYWITWVRQAPGQGLEWMGDIYPGSSISNYNEKFKSRVTMTVDTSTSTAYMELSSLRSEDTAVYYCAREDGYDAWFAYWGQGTLVTVSS VL: DVVMTQSPLSLPVTLGQPASISCRSSQSILHSNGNTYLEWFQQRPGQSPRLLISKVSNRFSGVPDRFSGSGSGTDFTLKISRVEAEDVGVYYCFQGSHVPFTFGQGTKLEIKR
17 | 0.0828 nM | 0.000298 s⁻¹ | 3.6e+06 M⁻¹ s⁻¹ | 7G6-HCzu5-LCzu8 (antibody, human IgG1, kappa, V domains shown, humanized, human IgG1 kappa) VH: QVQLVQSGAEVKKPGASVKVSCKASGYTFTTYWITWVRQAPGQGLEWMGDIYPGSSISNYNEKFKSRVTMTVDTSTSTAYMELSSLRSEDTAVYYCAREDGYDAWFAYWGQGTLVTVSS VL: DVVMTQSPLSLPVTLGQPASISCRSSQSIVHSNGNTYLEWFQQRPGQSPRRLISKVSNRFSGVPDRFSGSGSGTDFTLKISRVEAEDVGVYYCFQGSHVPFTFGQGTKLEIKR
